Assay results published in patent US20240124565A1 (DIADEM S R L, published 2024).
Where no end group is shown, it is not given here.

Molecular target: T1, peptide CRTEEENLRKKGEPHH (SEQ ID NO: 2) conjugated with BSA (human, also: conjugated with BSA by the glutaraldehyde method)
T1 construct: 16-residue immunogen derived from human p53 282-297, with Cys in place of the first Arg; ELISA plates were coated with 'the antigen'; also called the antigen; peptide used as antigen
T1 peptide: CRTEEENLRKKGEPHH
Assay: ELISA, plate coated with the antigen, hybridoma supernatant dilutions
Protocol: The animals' splenocytes were fused with mouse myeloma cells (SP2/O cell line). The fusion products were subjected to screening against the antigen to select the antibody-producing clones. The growth of these clones was continued. This first screening was performed by ELISA methodology. The positive clones were labeled as “parental clones” and frozen after 3 passages. An antigen coating was created onto ELISA plates, and successively the fusion product supernatant was added. The serum of the immunized animals was used as a positive control in ELISA (Example 2).
After the fusion between the splenocytes of the mouse with the best antibody titer and mouse myeloma cells, an ELISA assay was performed to evaluate the fusion products. A coating with the antigen was created in a 96-well ELISA plate and serial dilutions of the supernatant from various clones were added to each well to evaluate their antibody production by spectrophotometric reading. The clones with the highest optical density at 450 nm (OD₄₅₀ₙₘ) were transferred to 24-well plates and after their growth the ELISA assay was repeated, the clones with the highest antibody production were transferred to 6-well plates, grown and tested again by ELISA. The procedure was repeated also for the clones transferred to culture flasks.

binding result: binds
B1: 2D3A8 antibody (antibody)
heavy: EVQLQQSGPELVKPGASVKMSCKASGYTFTSYVMHWVKQKPGQGLEWIGYINPYNDGTKYNEKFKGKATLTSDKSSSTAYMELSSLTSEDSAVYYCARGGYYAMDYWGQGTSVTVSSESQSFPNVFPLVSCESPLSDKNLVAMGCLARDFLPSTISFTWNYQNNTEVIQGIRTFPTLRTGGKYLATSQVLLSPKSILEGSDEYLVCKIHYGGKNRDLHVPIPAVAEMNPNVNVFVPPRDGFSGPAPRKSKLICEATNFTPKPITVSWLKDGKLVESGFTTDPVTIENKGSTPQTYKVISTLTISEIDWLNLNVYTCRVDHRGLTFLKNVSSTCAASPSTDILTFTIPPSFADIFLSKSANLTCLVSNLATYETLNISWASQSGEPLETKIKIMESHPNGTFSAKGVASVCVEDWNNRKEFVCTVTHRDLPSPQKKFISKPNEVHKHPPAVYLLPPAREQLNLRESATVTCLVKGFSPADISVQWLQRGQLLPQEKYVTSAPMPEPGAPGFYFTHSILTVTEEEWNSGETYTCVVGHEALPHLVTERTVDKSTGKPTLYNVSLIMSDTGGTCY
light: DIQMTQTTSSLSASLGDRVTISCRASQDISNYLNWYQQKPDGTVKLLIYYTSRLHSGVPSRFSGSGSGTDYSLTISNLEQEDIATYFCQQGNTLPYTFGGGTKLEIKRADAAPTVSIFPPSSEQLTSGGASVVCFLNNFYPKDINVKWKIDGSERQNGVLNSWTDQDSKDSTYSMSSTLTLTKDEYERHNSYTCEATHKTSTSPIVKSFNRNEC
notes: Mouse monoclonal from a hybridoma, purified from the clone's supernatant; also called clone 2D3A8
